Measured values published in the supplement of paper PMC9170038.

Tested on: MS2 coat protein
Test: apparent KD of MS2 coat protein; designed switch direction (-1 OFF switch, 1 ON switch): 1; higher = weaker reporter binding
How it was run: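 Designed RNA switches sharing common flanks were transcribed on Illumina chips by stalled E. coli RNA polymerase. They were titrated with SNAP-549-labelled MS2 coat protein, from 0.7 or 1.5 nM doubling to 3 µM, in Tris-HCl pH 7.5 buffer with KCl, MgCl2, BSA, DTT, tRNA and Tween-20. Titrations ran without input, with 200 uM small-molecule ligand, or with an oligonucleotide input. The apparent KD of each design is the median over its clusters, after curve-fitting of normalised cluster fluorescence.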

[1] = input ligand: microRNA oligo, concentration not stated
[2] = Eterna round: R95, input ligand: FMN 200 uM
[3] = Eterna round: R95, input ligand: microRNA oligo, concentration not stated
[4] = Eterna round: R95, input ligand: none

| Sequence | apparent KD of MS2 coat protein (input ligand: FMN 200 uM) | apparent KD of MS2 coat protein [1] | apparent KD of MS2 coat protein (input ligand: none) | apparent KD of MS2 coat protein [2] | apparent KD of MS2 coat protein [3] | apparent KD of MS2 coat protein [4] |
| --- | --- | --- | --- | --- | --- | --- |
| ACAUGAGAGAUAGGAUAUGUUGUACCUACAUGUGACAUGAGGAUCACCCAUGUGGUAAGUAUGAGACAGAAGGAUCAGAUAUGU [Equivalence 31 - Jieux - Same State NG 2] (Eterna round: R96, puzzle: Same State NG 2) | 0.0208 µM | 0.0414 µM | 0.074 µM |  |  |  |
| ACAUGAGGAUCACCCAUGUAGGCUCAGGAAACUGUGCCACAUGAGGAUAUGGAUCCUAAUUGGAUCCAGAAGGCAUGAUUUAUU [Fiskers NG3ss - 21] (Eterna round: R96, puzzle: Same State NG 3) | 0.243 µM | 1.24 µM | 1.29 µM |  |  |  |
| ACAUGAGGAUCACCCAUGUAUAGAUUUGAAUCUUAAGUUACGUAGGAUAUCGUGUUUAGUAUCAUCGAGAAGGACGAUCUGAUA [JR_SSNG3_Sub067] (Eterna round: R96, puzzle: Same State NG 3) | 0.0197 µM | 0.0172 µM | 0.026 µM |  |  |  |
| ACAUGAGGAUCACCCAUGUAUUUAUAUGAAUCUUAAGUUACGUAGGAUAUCGUCUAUACUAUCAACGAGAAGGACGAACUCAAA [JR_SSNG3_Sub069] (Eterna round: R96, puzzle: Same State NG 3) | 0.00951 µM | 0.0153 µM | 0.0174 µM |  |  |  |
| ACCCGCGGGCCACAUGAGGAUCACCCAUGUGACCGGUGAUCCAAGGAUAUACGUGUGAUAGACGCGUAGAAGGUGGCCAAAACU [Rirazaedat] (Eterna round: R96, puzzle: Same State NG 3) | 0.127 µM | 0.0293 µM | 0.0319 µM |  |  |  |
| ACGUCGAUAUCACAGGAUAUACUCACAUCUACAUGAGGAUCACCCAUGUAGCGGUAUUCCGGUGCGUAGAAGGGUGAUGGACGAC [Same State 2 - Mod of Artece v.4] (puzzle: Same State 2) |  |  |  | 0.0144 µM | 0.0124 µM | 0.0122 µM |
| ACUCGGCAGAUAGGAUAUCCUGCAUGGAUAGUAGGAGAAGGAUCGUGCGCACAUGAGGAUCACCCAUGUGCCAAAUAAUAACAA [Reatedor] (Eterna round: R96, puzzle: Same State NG 1) | 0.011 µM | 0.0128 µM | 0.0184 µM |  |  |  |
| ACUUAGUACAAUUUAGAUCUACAUGAGGAUCACCCAUGUACUGAGGAUAUCAGCUCGAAUAGAGCUGAGAAGGCAGAAGUACUU [SSNG3/8-A1] (Eterna round: R96, puzzle: Same State NG 3) |  | 0.192 µM |  |  |  |  |
| AGAGAACAUGAGGAUCACCCAUGUAGGAUGGGCAUAGGAUAUAGAAGGAUGAAGGAGAAACUAGAAGGAUGAUGGA [JR_SS1_Sub076] (puzzle: Same State 1) |  |  |  | 0.107 µM | 0.145 µM | 0.235 µM |
| AGAGAACAUGAGGAUCACCCAUGUGGGAGAUGCAUAGGAUAUAGGAGAGAGAGCGAGGAACUAGAAGGAUGAUGGA [JR_SS1_Sub081] (puzzle: Same State 1) |  |  |  | 0.0797 µM | 0.0637 µM | 0.191 µM |
| AGAUAUCCACGACAUGAGGAUCACCCAUGUUGCUACGACAUGGAGGAUAUUCACGAUACACCUGUGAAGAAGGCUAAGGAUAUU [Eternabot solution 16] (Eterna round: R96, puzzle: Same State NG 3) | 0.631 µM | 0.508 µM | 0.776 µM |  |  |  |
| AGAUCAUGACGAGGAUAUGGAACAUGAGGAUCACCCAUGUAUGUUCCAUAACGCGAAUAAAGAAUCCAGAAGGCGUCGUGGUCA [Mat - Same State NG 2 - JL mod - D30] (Eterna round: R96, puzzle: Same State NG 2) | 0.0102 µM | 0.0789 µM | 0.0891 µM |  |  |  |
| AGAUCAUGACGAGGAUAUGGAACAUGAGGAUCACCCAUGUAUGUUCCAUAACGCGAAUGACGAAUCCAGAAGGCGUCGUGAUCA [Mat - Same State NG 2 - JL mod - D26] (Eterna round: R96, puzzle: Same State NG 2) | 0.0181 µM | 0.0921 µM | 0.116 µM |  |  |  |
| AGCCGAGACACAGGAUAUAGAUAUCUACAUGAGGAUCACCCAUGUAGCAACACGUGGUAGUGAUUCUAGAAGGGUGCUCGGCGC [Omei SS(NG)2 Cv8] (Eterna round: R96, puzzle: Same State NG 2) | 0.0253 µM | 0.17 µM | 0.189 µM |  |  |  |
| AGCCUGCCGCAAGGAUAUGAAGCUUUCGCUCCGUCAGAAGGUGCACAUGAGGAUCACCCAUGUAUGCAGGCCAAGAAAUAAAAC [Inbilerate] (Eterna round: R96, puzzle: Same State NG 1) | 0.0201 µM | 0.0339 µM | 0.0529 µM |  |  |  |
| AGCGAAAUAAGCAAGGAUAUGUAAUUUGGCACAUGAGGAUCACCCAUGUCAAUCCAUUUUUUGGAACAGAAGGUGCAUUUUUUUU [ak third] (puzzle: Same State 2) |  |  |  | 0.069 µM | 0.1 µM | 0.102 µM |
| AGCGAACAGGCUAACAUGAGGAUCACCCAUGUGGACUCAUGUUAGGAUAUCGGGAAGGAGGAAACCGAGAAGGGACGGUGAGCC [AK SSNG3-V2-46] (Eterna round: R96, puzzle: Same State NG 3) | 0.332 µM | 0.0146 µM | 0.0306 µM |  |  |  |
| AGCUAGUACCGAGGAUAUACAUACAUGAGGAUCACCCAUGUAUACAUGAAAUAUUGAGACUACAUGUAGAAGGCGGUACUAGCA [Mat - Same State NG 2 - JL mod - D44] (Eterna round: R96, puzzle: Same State NG 2) | 0.0136 µM | 0.0284 µM | 0.0464 µM |  |  |  |
| AGCUAGUACCGAGGAUAUACGUACAUGAGGAUCACCCAUGUAUACAUGGUUUAAUGAGACUACAUGUAGAAGGCGGUACUAGCA [JL SSNG2 1.25] (Eterna round: R96, puzzle: Same State NG 2) | 0.175 µM | 0.532 µM | 0.636 µM |  |  |  |
| AGCUAUCGAAAACGAUAGCAAAAGCAUGUACAUGAGGAUCACCCAUGUCAUGUACAAGCUUUUUGUUCGUCUUAAAA [Zipper 23 - 14] (puzzle: Sensor for hsa-mir-208a) |  |  |  | 0.43 µM | 0.0117 µM | 0.334 µM |
| AGCUAUCGCGUACGAUAGCUGAAGCGUGUACAUGAGGAUCACCCAUGUCAUGUGCAAGCUUUUUGCUCGUCUUAUUG [JL-shm-2.29 JL mod] (puzzle: Sensor for hsa-mir-208a) |  |  |  | 0.353 µM | 0.0148 µM | 0.459 µM |
| AGGCCAUCGGGAGGAUAUGGCACCUUAUUGGUGCCAGAAGGUCCAACAUGAGGAUCACCCAUGUGGGAGAGUUCUAAUGAACAU [Fiskers NG1(SS) - 3] (Eterna round: R96, puzzle: Same State NG 1) | 0.0284 µM | 0.0253 µM | 0.0322 µM |  |  |  |
| AGGCUCAGACGAGGAUAUAUGUAAUAACAUGAGGAUCACCCAUGUGUCGAGCUUCGGCUCGACACAUAGAAGGCGUCUGAGCCA [SSNG2/2-A1] (Eterna round: R96, puzzle: Same State NG 2) | 0.00875 µM | 0.0174 µM | 0.0257 µM |  |  |  |
| AGGCUCAGACUAGGAUAUACGUGGUCACAUGAGGAUCACCCAUGUCUCGAGCUUCGGCUCGAGGCGUAGAAGGAGUCUGAGCCA [SSNG2/6-D1] (Eterna round: R96, puzzle: Same State NG 2) | 0.119 µM | 0.26 µM | 0.371 µM |  |  |  |
| AGGCUCAGAGCAGGAUAUAUGUCUCGAGCUUCGGCUCGAGACAUGAGGAUCACCCAUGUAAUAACAUAGAAGGGCUCUGAGCCA [SSNG2/1-B1] (Eterna round: R96, puzzle: Same State NG 2) | 0.0112 µM | 0.0458 µM | 0.0634 µM |  |  |  |
| AGGGAGGAAGCUGAGGAUAUCGUAGGGAGGACAUGAGGAUCACCCAUGUGUAUAGAAUUGGAGGACGAGAAGGCAGAGGAGUGGG [JR_SS2_Sub051] (puzzle: Same State 2) |  |  |  | 0.0566 µM | 0.0585 µM | 0.0582 µM |
| AGUCCAGCAAGAGCUGGACAAAAGCAUGUACAUGAGGAUCACCCAUGUUCAUGUACAAGCUUUUUGCAAGUCAAAAG [Mat - hsa-mir-208a - Mod of JL - 73] (puzzle: Sensor for hsa-mir-208a) |  |  |  | 0.321 µM | 0.0239 µM | 0.416 µM |
